{"source": "patent US20110052606A1", "about": "(Novo Nordisk, published 2011)", "binders": {"B1": {"name": "HumZ199 (LC: L46P) (antibody, name in Kabat numbering, V domains shown)", "VH": "EVQLVESGGGLVKPGGSLRLSCAASGFTFSSYAMSWVRQAPGKGLEWVSEISSGGSYTYYADSVKGRFTISRDNAKNSLYLQMNSLRAEDTAVYYCARHGDYPRFFDVWGQGTTVTVSS", "VL": "EIVLTQSPATLSLSPGERATLSCSASSSVSSYIYWYQQKPGQAPRPLIYLTSNLASGIPARFSGSGSGTDFTLTISSLEPEDFAVYYCQQWSGNPYTFGQGTKLEIK", "notes": "also called huZ199(LC:L46P); humZ199 with single back mutation L46P in the light chain"}, "B2": {"name": "chimeric Z199 with a human IgG4(S241P) portion (antibody, V domains shown)", "VH": "EVQLVESGGGLVKPGGSLKLSCAASGFTFSSYAMSWVRQSPEKRLEWVAEISSGGSYTYYPDTVTGRFTISRDNAKNTLYLEISSLRSEDTAMYYCTRHGDYPRFFDVWGAGTTVTVSS", "VL": "QIVLTQSPALMSASPGEKVTMTCSASSSVSYIYWYQQKPRSSPKPWIYLTSNLASGVPARFSGSGSGTSYSLTISSMEAEDAATYYCQQWSGNPYTFGGGTKLEIKR", "notes": "also called chimZ199; ChimZ199"}, "B3": {"name": "chimZ199 heavy-chain alanine mutant P99A (antibody, human IgG4, name in Kabat numbering, V domains shown)", "VH": "B2 VH with P103A", "VL": "B2 VL", "notes": "Ala-scan mutant made on chimZ199 (human IgG4 constant domains); Kabat numbering; also called HC: P99A"}, "B4": {"name": "chimZ199 light-chain alanine mutant Y32A (antibody, human IgG4, name in Kabat numbering, V domains shown)", "VH": "B2 VH", "VL": "B2 VL with Y31A", "notes": "Ala-scan mutant made on chimZ199 (human IgG4 constant domains); also called LC: Y32A"}, "B5": {"name": "murine anti-NKG2A antibody Z199 (antibody, V domains shown)", "VH": "B2 VH", "VL": "B2 VL", "notes": "Mouse monoclonal antibody (Beckman Coulter IM2750) and its recombinant form recZ199 made in HEK293 cells; also called recZ199; Z199 (rec)"}, "B6": {"name": "chimZ199 light-chain alanine mutant P95A (antibody, human IgG4, name in Kabat numbering, V domains shown)", "VH": "B2 VH", "VL": "B2 VL with P94A", "notes": "Ala-scan mutant made on chimZ199 (human IgG4 constant domains); also called LC: P95A"}, "B7": {"name": "chimZ199 light-chain alanine mutant L50A (antibody, human IgG4, name in Kabat numbering, V domains shown)", "VH": "B2 VH", "VL": "B2 VL with L49A", "notes": "Ala-scan mutant made on chimZ199 (human IgG4 constant domains); also called LC: L50A"}, "B8": {"name": "chimZ199 heavy-chain alanine mutant Y98A (antibody, human IgG4, name in Kabat numbering, V domains shown)", "VH": "B2 VH with Y102A", "VL": "B2 VL", "notes": "Ala-scan mutant made on chimZ199 (human IgG4 constant domains); Kabat numbering; also called HC: Y98A"}, "B9": {"name": "chimZ199 heavy-chain alanine mutant Y56A (antibody, human IgG4, name in Kabat numbering, V domains shown)", "VH": "B2 VH with Y57A", "VL": "B2 VL", "notes": "Ala-scan mutant made on chimZ199 (human IgG4 constant domains); Kabat numbering; also called HC: Y56A"}}, "key": {"[1]": {"molecular_target": "T1, scCD94/NKG2A-mFc, Fc-fusion protein of murine IgG1 fused at the C-terminus with a single-chain construct of … (mouse; human, UniProt Q13241 32-179)", "T1 sequence (Q13241 other isoform, or with tags, fused parts or gaps)": "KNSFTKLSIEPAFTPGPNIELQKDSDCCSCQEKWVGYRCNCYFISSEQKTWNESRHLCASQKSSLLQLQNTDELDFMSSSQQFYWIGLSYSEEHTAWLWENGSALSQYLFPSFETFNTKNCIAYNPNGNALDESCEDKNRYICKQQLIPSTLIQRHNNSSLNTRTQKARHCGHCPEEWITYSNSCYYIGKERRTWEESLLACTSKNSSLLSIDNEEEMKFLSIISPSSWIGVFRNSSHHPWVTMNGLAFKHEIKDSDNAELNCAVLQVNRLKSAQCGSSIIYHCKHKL", "experiment": "SPR Biacore T100, sc-NKG2A-CD94-mFc immobilized, antibody 1.25-10 nM"}, "[2]": {"molecular_target": "T1, scCD94/NKG2A-mFc, Fc-fusion protein of …", "experiment": "SPR Biacore T100, sc-NKG2A-CD94-mFc immobilized"}, "[3]": {"molecular_target": "T1, scCD94/NKG2A-mFc, Fc-fusion protein of …", "experiment": "SPR Biacore T100, sc-NKG2A-CD94-mFc immobilized, binding level (RU) divided by that of chimZ199"}, "[4]": {"molecular_target": "T2, human CD94/NKG2A receptor on cells (Ba/F3 cells over-expressing CD94/NKG2A; NKL cells) (human, UniProt Q13241 1-179)", "T2 construct": "whole, on cells; also called Ba/F3-CD94/NKG2A", "T2 sequence (chain, as listed by the source, chain 1 of 2)": "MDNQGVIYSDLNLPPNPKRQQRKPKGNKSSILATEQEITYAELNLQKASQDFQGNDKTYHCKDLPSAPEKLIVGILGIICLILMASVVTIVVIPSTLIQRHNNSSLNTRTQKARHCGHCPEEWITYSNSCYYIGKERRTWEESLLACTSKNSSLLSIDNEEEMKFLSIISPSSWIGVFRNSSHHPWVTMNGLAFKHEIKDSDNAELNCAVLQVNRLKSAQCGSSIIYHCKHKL", "T2 sequence (Q13241 whole entry, chain 2 of 2)": "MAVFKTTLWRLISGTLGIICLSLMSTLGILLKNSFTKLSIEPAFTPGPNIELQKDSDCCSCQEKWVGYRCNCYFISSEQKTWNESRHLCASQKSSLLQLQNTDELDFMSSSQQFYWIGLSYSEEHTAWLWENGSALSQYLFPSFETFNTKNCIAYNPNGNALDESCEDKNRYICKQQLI", "experiment": "flow cytometry on Ba/F3-CD94/NKG2A cells"}}, "note": "Where a chain is given by its changes, count along the chain named. Numbers in names are those of the source."}
{"binder": "B1", "values": [{"measurement": "Kd", "setting": "[1]", "value": 0.072, "unit": "nM"}, {"measurement": "koff", "setting": "[1]", "value": 0.000122, "unit": "s⁻¹"}, {"measurement": "kon", "setting": "[1]", "value": "1.7e+06", "unit": "M⁻¹ s⁻¹"}, {"measurement": "fold difference of affinity against chimeric Z199", "setting": "[2]", "value": 2.7, "unit": "fold"}]}
{"binder": "B2", "values": [{"measurement": "Kd", "setting": "[1]", "value": 0.0243, "unit": "nM"}, {"measurement": "koff", "setting": "[1]", "value": "4.17e-05", "unit": "s⁻¹"}, {"measurement": "kon", "setting": "[1]", "value": "1.72e+06", "unit": "M⁻¹ s⁻¹"}]}
{"binder": "B3", "values": [{"measurement": "relative binding against chimZ199", "setting": "[3]", "value": "~40", "unit": "%"}]}
{"binder": "B4", "values": [{"measurement": "relative binding against chimZ199", "setting": "[3]", "value": "~40", "unit": "%"}]}
{"binder": "B5", "values": [{"measurement": "binding result", "setting": "[4]", "value": "binds"}]}
{"binder": "B6", "values": [{"measurement": "relative binding against chimZ199", "setting": "[3]", "value": "~40", "unit": "%"}]}
{"binder": "B7", "values": [{"measurement": "relative binding against chimZ199", "setting": "[3]", "value": "~40", "unit": "%"}]}
{"binder": "B8", "values": [{"measurement": "relative binding against chimZ199", "setting": "[3]", "value": "~40", "unit": "%"}]}
{"binder": "B9", "values": [{"measurement": "relative binding against chimZ199", "setting": "[3]", "value": "~40", "unit": "%"}]}
